In patent publication US20090221008A1 (Human Genome Sciences, published 2009):

Tests used:
[1] = biological target: T1, peptide comprising amino acid residues Val-227 to Asn-242 of SEQ ID NO:2 (human); test: epitope mapping with peptides
T1 peptide: VTLFRCIQNMPETLPN

[2] = biological target: T2, soluble form of Neutrokine-alpha (amino acids 134 to 285 of SEQ ID NO:2) (human, UniProt Q9Y275 134-285); test: summary of Example 10
T2 construct: also called rNeutrokine-alpha; soluble Neutrokine-alpha

[3] = biological target: T3, membrane-bound form of Neutrokine-alpha (human, UniProt Q9Y275 1-285); test: summary of Example 10
T3 construct: Endogenous type II membrane protein on THP-1 cells, monocytes and myeloid cell lines; also called Neutrokine-alpha on the surface of THP-1 cells; cell surface Neutrokine-alpha
T3 sequence (Q9Y275 whole entry): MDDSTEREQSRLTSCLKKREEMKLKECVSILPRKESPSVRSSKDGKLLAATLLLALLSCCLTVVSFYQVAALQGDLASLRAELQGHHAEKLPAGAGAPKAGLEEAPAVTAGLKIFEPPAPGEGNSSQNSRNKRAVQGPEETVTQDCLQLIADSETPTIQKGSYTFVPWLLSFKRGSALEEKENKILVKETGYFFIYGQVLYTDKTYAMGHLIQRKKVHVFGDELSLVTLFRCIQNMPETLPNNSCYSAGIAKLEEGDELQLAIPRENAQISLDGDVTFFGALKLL

binding result [1]: binds
binding result [2]: binds
binding result [3]: binds
B1: 15C10 (antibody, human IgG1, V domains shown)
VH: QVQLQQSGAELARPGASVKMSCRASGYTFTTYTMHWVKQRPGQGLEWIGYIIPRNTYTTFNQKFKNKATLTADKSSNTAYMQLSSLTSEDSAVYYCARHYGGGYWFFDVWGAGTTVTVSS
VL: ELVMTQTPASLAVSLGQRATISCRGSESVDSYGNSFMHWYQQKPGQPPKLLIYRASNLESGIPARFSGSGSRTDFTLTIYPVEADDVATYYCQQSNDDPMYTFGGGTKLEIKR
notes: Murine monoclonal antibody; hybridoma ATCC PTA-1158; A chimeric form with human IgG1/kappa was deposited as ATCC PTA-3794; also called anti-Neutrokine-alpha antibody 15C10
